Laboratory results taken from the supplement of paper PMC10126150.
± gives the standard deviation of the averaged measurements.

Tested on: ATP
Assay: switch fluorescence ratio, 500 uM ATP over buffer (Cy3 cluster intensity, sum of 5 cycles each) (fold (ratio)); higher = stronger signal-on switching upon ATP binding; sequences stand for … in TCGTCGGCAGCGTCAGATGTGTATAAGAGACAGTTTTTTTTTTTTTTTTTTTTTTTTT…TC
Details: aptamer strand: ATP DNA aptamer (quencher-CACCTGGGGGAGTATTGCGGAGGAAGG + anchor), 100 nM annealed; ATP concentration: 500 uM
Method in brief: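 Clusters carrying Cy3-labelled switching strands on a modified Illumina MiSeq flow-cell were annealed to 100 nM quencher-labelled ATP aptamer and imaged in selection buffer. They were imaged again after 15 min with 500 uM ATP at 22 °C, over five buffer/ATP cycles with NaOH stripping and re-annealing in between. For each cluster, the fluorescence ratio is the summed Cy3 intensity of the target cycles divided by that of the buffer cycles, averaged per switch-domain sequence. Clusters outside 100-1000 RFU were left out.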
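Further: ATP exposure 15 min at 22 °C before imaging.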

Sequence | switch fluorescence ratio
TTCGAGGGGG | 1.01 ± 0.031
TTCGCAACAG | 2.19 ± 0.67
TTCGCAGTCA | 1.03 ± 0.052
TTCGCCAATG | 1.07 ± 0.03
TTCGCGCGGT | 1.04 ± 0.077
TTCGCGCTTT | 1 ± 0.036
TTCGCTACGG | 1.05 ± 0.029
TTCGCTGGTA | 1.15 ± 0.22
TTCGGAGGGC | 0.996 ± 0.031
TTCGGCTGCA | 1.08 ± 0.064
TTCGGGACCC | 1.08 ± 0.1
TTCGGGAGCC | 1 ± 0.024
TTCGGGATCG | 0.981 ± 0.057
TTCGGGATTG | 0.997 ± 0.024
TTCGGGCAGG | 1.06 ± 0.054
TTCGGGCCGA | 0.998 ± 0.017
TTCGGGCGAT | 1.01 ± 0.013
TTCGGGCTGT | 0.996 ± 0.011
TTCGGGGAT | 0.982 ± 0.032
TTCGGGGCGC | 1.03 ± 0.065
TTCGGGGCTT | 0.983 ± 0.035
TTCGGGTATT | 1.1 ± 0.2
TTCGGGTGGT | 1.04 ± 0.05
TTCGGGTTTG | 1 ± 0.034
TTCGGTAAGG | 1.02 ± 0.013

Sequence | switch fluorescence ratio
TTCGGTAGCG | 0.996 ± 0.046
TTCGGTCGGG | 0.987 ± 0.028
TTCGGTTACG | 1.01 ± 0.011
TTCGGTTGTG | 0.96 ± 0.013
TTCGGTTTGG | 0.9952 ± 0.0061
TTCGGTTTTC | 0.984 ± 0.033
TTCGGTTTTG | 0.993 ± 0.031
TTCGGTTTTT | 1.02 ± 0.011
TTCGTAAAAA | 1.09 ± 0.089
TTCGTACTAT | 0.993 ± 0.039
TTCGTAGTGG | 1 ± 0.013
TTCGTAGTTT | 0.964 ± 0.023
TTCGTATTGT | 0.975 ± 0.018
TTCGTCCTGG | 1.01 ± 0.056
TTCGTCGGTA | 1.09 ± 0.15
TTCGTCTTTT | 0.98 ± 0.016
TTCGTGGCCC | 0.9572 ± 0.003
TTCGTGGGTG | 1.03 ± 0.075
TTCGTGTTAT | 0.995 ± 0.021
TTCGTTAGCG | 0.996 ± 0.022
TTCGTTATAC | 2.29 ± 1.1
TTCGTTCCGT | 1.03 ± 0.019
TTCGTTCTTT | 1.005 ± 0.0043
TTCTAAAAAG | 0.995 ± 0.035
TTCTAATGGT | 1.01 ± 0.073

Sequence | switch fluorescence ratio
TTCTACGGTA | 1.69 ± 0.68
TTCTACTTTG | 1.035 ± 0.0074
TTCTACTTTT | 1.01 ± 0.053
TTCTAGTCGT | 0.971 ± 0.019
TTCTATTTCT | 0.9872 ± 0.0039
TTCTCCGGGT | 1.24 ± 0.32
TTCTCGATCT | 1.03 ± 0.037
TTCTCTGTAA | 2.66 ± 1.6
TTCTGAGGGA | 1 ± 0.03
TTCTGAGGGG | 1.03 ± 0.035
TTCTGCAGGG | 0.997 ± 0.043
TTCTGCGCCC | 2.52 ± 2
TTCTGGAAAA | 1.05 ± 0.064
TTCTGGGGCA | 1.05 ± 0.055
TTCTGGGTCT | 0.9833 ± 0.0042
TTCTGTATTG | 1.03 ± 0.035
TTCTTACGTC | 1 ± 0.011
TTCTTCTCAA | 1.15 ± 0.065
TTCTTGAGTA | 0.984 ± 0.019
TTCTTGCTAC | 1.78 ± 0.036
TTCTTGGACG | 1.05 ± 0.16
TTCTTGGCGG | 1 ± 0.07
TTCTTTGTGA | 1 ± 0.054
TTCTTTTGTA | 1.06 ± 0.076
TTGAAAAAAA | 1.2 ± 0.27

Sequence | switch fluorescence ratio
TTGAAAAAAC | 1.04 ± 0.074
TTGAAAAAGG | 0.968 ± 0.018
TTGAAAAATT | 1.03 ± 0.016
TTGAAAATGA | 0.979 ± 0.016
TTGAACCCGA | 1.01 ± 0.023
TTGAAGAAAA | 1.97 ± 1.3
TTGAAGGCAA | 1.59 ± 0.076
TTGAAGGGGT | 1.08 ± 0.1
TTGAAGGGTT | 0.9978 ± 0.0033
TTGAAGTAAG | 0.994 ± 0.019
TTGAATGAAT | 1.015 ± 0.0031
TTGAATGCAT | 0.969 ± 0.13
TTGAATTAAG | 0.982 ± 0.032
TTGAATTATT | 1.03 ± 0.013
TTGAATTGCT | 0.986 ± 0.032
TTGAATTTCT | 0.992 ± 0.016
TTGACAAACG | 1.1 ± 0.054
TTGACAAGGG | 0.997 ± 0.015
TTGACAATGT | 1.03 ± 0.095
TTGACAGGTT | 1.15 ± 0.19
TTGACCAATA | 1.12 ± 0.016
TTGACCTGAG | 1.08 ± 0.013
TTGACGGGGA | 1.12 ± 0.17
TTGACGTCGG | 0.985 ± 0.018
TTGACGTGTT | 1.03 ± 0.047

Sequence | switch fluorescence ratio
TTGACTGGAA | 1.02 ± 0.011
TTGACTGGAG | 1 ± 0.011
TTGACTTTAA | 1 ± 0.083
TTGAGAAATT | 1 ± 0.014
TTGAGACTAG | 1 ± 0.015
TTGAGACTCG | 0.995 ± 0.019
TTGAGACTGT | 0.971 ± 0.052
TTGAGAGCAA | 1.72 ± 0.18
TTGAGAGCAG | 1.24 ± 0.11
TTGAGATAAG | 0.9819 ± 0.0014
TTGAGATTGA | 1.01 ± 0.02
TTGAGATTTG | 1.01 ± 0.013
TTGAGATTTT | 0.996 ± 0.023
TTGAGCATAT | 2.12 ± 1.2
TTGAGCGGGT | 1.11 ± 0.091
TTGAGCTTCA | 1.115 ± 0.0063
TTGAGGAAGG | 0.9835 ± 0.0018
TTGAGGAGGG | 0.962 ± 0.11
TTGAGGCGGA | 1.04 ± 0.033
TTGAGGGACT | 1.01 ± 0.018
TTGAGGGATC | 1.01 ± 0.06
TTGAGGGCAG | 1 ± 0.034
TTGAGGGTGA | 0.988 ± 0.016
TTGAGGGTTC | 0.96 ± 0.022
TTGAGGGTTT | 0.994 ± 0.029

Sequence | switch fluorescence ratio
TTGAGGTCGG | 1.005 ± 0.0066
TTGAGGTGCG | 1.01 ± 0.026
TTGAGTCGTC | 0.962 ± 0.011
TTGAGTGGAG | 1.02 ± 0.029
TTGAGTGGTT | 1.01 ± 0.092
TTGAGTTTTG | 0.985 ± 0.031
TTGATACCAG | 0.982 ± 0.013
TTGATAGGCC | 0.9998 ± 0.0049
TTGATAGGGT | 1.01 ± 0.026
TTGATAGTTG | 1.01 ± 0.049
TTGATATTTG | 1.01 ± 0.039
TTGATCAGAG | 1.01 ± 0.024
TTGATCAGTA | 1.02 ± 0.02
TTGATCGTGC | 1.12 ± 0.18
TTGATCTGCT | 0.987 ± 0.023
TTGATGATCC | 0.9781 ± 0.0034
TTGATGCAGC | 0.958 ± 0.054
TTGATGGGGA | 0.982 ± 0.014
TTGATGGGTT | 1.02 ± 0.011
TTGATGTCAA | 0.999 ± 0.056
TTGATGTCCC | 1 ± 0.027
TTGATTGGCG | 1.07 ± 0.058
TTGATTGGGG | 0.989 ± 0.029
TTGATTTAGG | 0.995 ± 0.028
TTGATTTTAA | 1 ± 0.014

Sequence | switch fluorescence ratio
TTGATTTTTG | 1.01 ± 0.03
TTGCAATTTT | 1.36 ± 0.46
TTGCACAATT | 1.01 ± 0.057
TTGCACTACT | 1.5 ± 0.025
TTGCACTGAC | 1.53 ± 0.21
TTGCAGCTCA | 1.78 ± 1.1
TTGCAGTAGC | 1.05 ± 0.033
TTGCATAGTG | 0.9536 ± 0.0026
TTGCATGTTG | 0.9886 ± 0.0033
TTGCATGTTT | 1.15 ± 0.3
TTGCATTAAG | 0.9963 ± 0.0082
TTGCATTAGG | 1.28 ± 0.31
TTGCATTATA | 1.07 ± 0.054
TTGCATTGGA | 0.9885 ± 0.0079
TTGCATTTTC | 1.09 ± 0.11
TTGCATTTTG | 0.985 ± 0.025
TTGCCAATCC | 1.04 ± 0.04
TTGCCAGATT | 0.994 ± 0.037
TTGCCCCGTA | 1.02 ± 0.023
TTGCCCCTTA | 1.03 ± 0.045
TTGCCGGGCA | 0.987 ± 0.032
TTGCCTCGGG | 1.04 ± 0.037
TTGCCTGGGG | 1.02 ± 0.013
TTGCGAGAAC | 1.17 ± 0.18
TTGCGATGGT | 1.02 ± 0.012

Sequence | switch fluorescence ratio
TTGCGGAGGG | 1.01 ± 0.069
TTGCGGGGCC | 1.04 ± 0.051
TTGCGTATGG | 1.01 ± 0.021
TTGCTAAAAG | 1.02 ± 0.028
TTGCTAGCCT | 1.01 ± 0.021
TTGCTAGTAT | 1.0001 ± 0.00075
TTGCTATGTT | 1.01 ± 0.037
TTGCTCACTT | 1.04 ± 0.029
TTGCTCTTGG | 0.956 ± 0.0095
TTGCTGAGCT | 0.9984 ± 0.0076
TTGCTGATTT | 0.992 ± 0.059
TTGCTGGGCC | 1.02 ± 0.088
TTGCTTAGTT | 1.002 ± 0.0071
TTGCTTATCG | 1.021 ± 0.0047
TTGCTTATGG | 1.01 ± 0.015
TTGCTTCGGC | 0.976 ± 0.04
TTGCTTGGTG | 1.03 ± 0.017
TTGCTTGTTG | 1.02 ± 0.034
TTGCTTTTCG | 0.974 ± 0.015
TTGCTTTTTG | 0.984 ± 0.064
TTGGAAACCA | 1.02 ± 0.015
TTGGAAACGT | 1.06 ± 0.067
TTGGAAAGCA | 1.03 ± 0.027
TTGGAAATTT | 1.05 ± 0.17
TTGGAAGATT | 0.9881 ± 0.003
